Test results reported in publication PMC10043283, “Neuraminidase 1 promotes renal fibrosis development in male mice” (Nature Communications, 2023).

Biological target: T1, Human NEU1 recombinant protein (human, UniProt Q99519 48-415)
T1 construct: human neuraminidase 1 (NEU1), recombinant; Amine-coupled to a CM5 chip; also called recombinant human NEU1; source: recombinant protein, gifted by Dr. Xiao Yibei lab
Assay: SPR; Biacore T200, 25 °C, HBS-EP+ pH 7.4; human NEU1 amine-coupled to CM5 chip (8000–10,000 RU); ALK5 recombinant proteins flowed at 7.80–500 nM; 1:1 binding model
Details: both partners purified

Kd: 3.14 nM
B1: human ALK5_(162-403aa) recombinant protein (domain or fragment, UniProt P36897 162-403, looked up)
chain: EDPSLDRPFISEGTTLKDLIYDMTTSGSGSGLPLLVQRTIARTIVLQESIGKGRFGEVWRGKWRGEEVAVKIFSSREERSWFREAEIYQTVMLRHENILGFIAADNKDNGTWTQLWLVSDYHEHGSLFDYLNRYTVTVEGMIKLALSTASGLAHLHMEIVGTQGKPAIAHRDLKSKNILVKKNGTCCIADLGLAVRHDSATDTIDIAPNHRVGTKRYMAPEVLDDSINMKHFESFKRADIYA
notes: human ALK5 (TGFβ type I receptor), amino acids 162-403; also called amino acid 162–403 region of ALK5; source: bought: Sino Biological Inc
